Km data for one protein are collected here from PMC2915760.

Substrate in the series: O=[N+]([O-])c1ccc(OP(=O)(O)O)cc1
Nature of the series: purified protein.

B1: Lyp (lymphoid-specific protein tyrosine phosphatase, PTPN22), wild-type (Homo sapiens) (protein)
chain: MDQREILQKFLDEAQSKKITKEEFANEFLKLKRQSTKYKADKTYPTTVAEKPKNIKKNRYKDILPYDYSRVELSLITSDEDSSYINANFIKGVYGPKAYIATQGPLSTTLLDFWRMIWEYSVLIIVMACMEYEMGKKKCERYWAEPGEMQLEFGPFSVSCEAEKRKSDYIIRTLKVKFNSETRTIYQFHYKNWPDHDVPSSIDPILELIWDVRCYQEDDSVPICIHCSAGCGRTGVICAIDYTWMLLKDGIIPENFSVFSLIREMRTQRPSLVQTQEQYELVYNAVLELFKRQM
As a reminder, the Km is the concentration of substrate that gives half-maximal velocity. In the case of B1, the Km amounted to 4.86 ± 0.39 mM.
